These results are taken from patent US20190134153A1, “IMMUNOMODULATORY EFFECT OF INHALED KINASE INHIBITOR PEPTIDES IN LUNG” (MOERAE MATRIX, INC., priority 2017, published 2019).

Among the targets are Arg(h) (Homo sapiens, UniProt P42684); MRCKβ(h) (Homo sapiens, UniProt Q9Y5S2); TrkA(h) (Homo sapiens, UniProt P04629); CDK5/p35(h) (Homo sapiens, UniProt Q00535); FGFR1(h) (Homo sapiens, UniProt P11362); cKit(V654A)(h) (Homo sapiens, UniProt P10721, V654A); PKBβ(h) (Homo sapiens, UniProt P31751); PKCβII(h) (Homo sapiens, UniProt P05771); Fer(h) (Homo sapiens, UniProt P16591); Axl(h) (Homo sapiens, UniProt P30530); SRPK2(h) (Homo sapiens, UniProt P78362).

Common to all, as to experiment: Kinase Profiling Assay
Assay type in all cases: biochemical
What all share (conditions): 100 μM

The target of a further experiment is T1, EphB1(h) (Homo sapiens, UniProt P54762).
T1 sequence (P54762 18-984): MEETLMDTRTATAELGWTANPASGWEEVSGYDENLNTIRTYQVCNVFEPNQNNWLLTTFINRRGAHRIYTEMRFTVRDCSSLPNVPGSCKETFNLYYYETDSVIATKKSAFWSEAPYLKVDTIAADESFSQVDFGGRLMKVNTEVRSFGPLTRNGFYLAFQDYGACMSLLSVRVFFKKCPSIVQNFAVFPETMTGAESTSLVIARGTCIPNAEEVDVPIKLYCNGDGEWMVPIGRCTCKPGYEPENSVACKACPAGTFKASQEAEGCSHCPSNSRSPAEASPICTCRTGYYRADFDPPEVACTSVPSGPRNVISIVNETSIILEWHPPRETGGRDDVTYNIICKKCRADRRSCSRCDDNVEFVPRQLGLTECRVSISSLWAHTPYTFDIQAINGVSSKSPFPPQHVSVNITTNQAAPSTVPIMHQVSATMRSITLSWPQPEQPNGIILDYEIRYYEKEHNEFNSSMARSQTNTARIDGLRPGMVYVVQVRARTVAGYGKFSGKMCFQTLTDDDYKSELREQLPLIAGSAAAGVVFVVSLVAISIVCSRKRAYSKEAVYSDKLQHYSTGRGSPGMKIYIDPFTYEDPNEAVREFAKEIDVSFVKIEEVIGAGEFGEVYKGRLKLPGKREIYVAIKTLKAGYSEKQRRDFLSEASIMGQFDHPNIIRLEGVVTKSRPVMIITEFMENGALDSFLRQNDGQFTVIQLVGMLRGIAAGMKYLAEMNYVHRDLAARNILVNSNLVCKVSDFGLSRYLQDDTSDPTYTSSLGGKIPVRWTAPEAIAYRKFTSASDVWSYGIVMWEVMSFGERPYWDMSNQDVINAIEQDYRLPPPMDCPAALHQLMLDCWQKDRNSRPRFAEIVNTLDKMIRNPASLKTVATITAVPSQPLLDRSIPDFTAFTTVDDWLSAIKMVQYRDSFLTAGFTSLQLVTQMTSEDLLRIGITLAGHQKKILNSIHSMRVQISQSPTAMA

The target of another experiment is T2, Bmx(h) (Homo sapiens, UniProt P51813).
T2 sequence (P51813 1-675): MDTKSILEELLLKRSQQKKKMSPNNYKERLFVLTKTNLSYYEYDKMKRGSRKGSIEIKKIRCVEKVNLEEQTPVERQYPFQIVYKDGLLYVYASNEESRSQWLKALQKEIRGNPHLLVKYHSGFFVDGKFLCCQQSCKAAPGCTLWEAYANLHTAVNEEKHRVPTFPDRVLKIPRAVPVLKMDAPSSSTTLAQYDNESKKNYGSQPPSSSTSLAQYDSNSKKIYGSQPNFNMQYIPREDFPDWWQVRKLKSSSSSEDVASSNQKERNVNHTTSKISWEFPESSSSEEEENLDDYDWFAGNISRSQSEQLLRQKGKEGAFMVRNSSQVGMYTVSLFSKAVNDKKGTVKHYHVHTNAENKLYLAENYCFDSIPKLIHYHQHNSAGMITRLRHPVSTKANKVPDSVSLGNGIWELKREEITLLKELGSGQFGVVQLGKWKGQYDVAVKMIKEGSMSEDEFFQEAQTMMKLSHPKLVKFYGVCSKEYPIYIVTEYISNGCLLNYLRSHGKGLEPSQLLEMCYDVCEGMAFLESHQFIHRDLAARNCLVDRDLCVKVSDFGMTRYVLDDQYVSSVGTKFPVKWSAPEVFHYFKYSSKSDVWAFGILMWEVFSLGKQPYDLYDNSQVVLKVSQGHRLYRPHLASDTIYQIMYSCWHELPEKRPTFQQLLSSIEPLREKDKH

FGFR1(h), sequence (P11362 22-822): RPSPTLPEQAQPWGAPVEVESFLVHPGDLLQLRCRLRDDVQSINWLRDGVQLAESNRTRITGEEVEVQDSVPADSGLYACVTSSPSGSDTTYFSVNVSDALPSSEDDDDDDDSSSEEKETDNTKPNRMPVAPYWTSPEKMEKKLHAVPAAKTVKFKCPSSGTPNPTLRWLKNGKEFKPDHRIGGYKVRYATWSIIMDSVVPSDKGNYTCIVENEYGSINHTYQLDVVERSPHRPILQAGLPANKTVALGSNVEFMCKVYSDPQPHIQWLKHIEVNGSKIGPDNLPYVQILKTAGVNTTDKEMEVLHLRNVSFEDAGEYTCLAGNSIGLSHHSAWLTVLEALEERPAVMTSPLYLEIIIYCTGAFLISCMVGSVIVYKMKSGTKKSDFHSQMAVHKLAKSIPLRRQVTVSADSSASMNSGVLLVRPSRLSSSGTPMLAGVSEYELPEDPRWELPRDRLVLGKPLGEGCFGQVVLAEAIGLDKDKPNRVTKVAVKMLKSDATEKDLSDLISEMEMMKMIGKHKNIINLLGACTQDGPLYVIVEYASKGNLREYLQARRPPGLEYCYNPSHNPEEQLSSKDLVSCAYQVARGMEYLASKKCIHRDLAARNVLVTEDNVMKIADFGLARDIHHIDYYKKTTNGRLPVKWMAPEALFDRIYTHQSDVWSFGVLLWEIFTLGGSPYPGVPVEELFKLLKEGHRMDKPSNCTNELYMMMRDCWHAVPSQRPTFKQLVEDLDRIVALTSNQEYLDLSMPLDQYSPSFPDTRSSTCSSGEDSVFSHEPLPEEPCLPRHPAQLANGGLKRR
CDK5/p35(h), sequence (Q00535 whole entry): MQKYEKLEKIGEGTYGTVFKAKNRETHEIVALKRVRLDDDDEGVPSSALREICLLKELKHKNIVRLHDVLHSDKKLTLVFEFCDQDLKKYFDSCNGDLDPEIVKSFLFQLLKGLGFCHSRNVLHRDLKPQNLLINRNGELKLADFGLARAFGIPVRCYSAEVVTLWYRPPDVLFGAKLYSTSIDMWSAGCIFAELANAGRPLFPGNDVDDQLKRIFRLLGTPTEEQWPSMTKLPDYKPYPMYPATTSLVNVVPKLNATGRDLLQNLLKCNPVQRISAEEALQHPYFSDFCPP
CDK5/p35(h), sequence (Q15078 whole entry partner): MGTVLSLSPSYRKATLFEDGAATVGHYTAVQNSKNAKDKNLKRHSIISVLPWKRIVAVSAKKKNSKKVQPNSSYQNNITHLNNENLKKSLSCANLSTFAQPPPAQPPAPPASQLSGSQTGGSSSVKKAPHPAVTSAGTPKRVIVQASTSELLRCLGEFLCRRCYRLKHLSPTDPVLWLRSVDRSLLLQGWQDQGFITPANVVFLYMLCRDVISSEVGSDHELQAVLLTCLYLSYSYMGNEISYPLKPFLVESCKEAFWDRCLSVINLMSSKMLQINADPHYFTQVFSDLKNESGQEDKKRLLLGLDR
Fer(h), sequence (P16591 whole entry): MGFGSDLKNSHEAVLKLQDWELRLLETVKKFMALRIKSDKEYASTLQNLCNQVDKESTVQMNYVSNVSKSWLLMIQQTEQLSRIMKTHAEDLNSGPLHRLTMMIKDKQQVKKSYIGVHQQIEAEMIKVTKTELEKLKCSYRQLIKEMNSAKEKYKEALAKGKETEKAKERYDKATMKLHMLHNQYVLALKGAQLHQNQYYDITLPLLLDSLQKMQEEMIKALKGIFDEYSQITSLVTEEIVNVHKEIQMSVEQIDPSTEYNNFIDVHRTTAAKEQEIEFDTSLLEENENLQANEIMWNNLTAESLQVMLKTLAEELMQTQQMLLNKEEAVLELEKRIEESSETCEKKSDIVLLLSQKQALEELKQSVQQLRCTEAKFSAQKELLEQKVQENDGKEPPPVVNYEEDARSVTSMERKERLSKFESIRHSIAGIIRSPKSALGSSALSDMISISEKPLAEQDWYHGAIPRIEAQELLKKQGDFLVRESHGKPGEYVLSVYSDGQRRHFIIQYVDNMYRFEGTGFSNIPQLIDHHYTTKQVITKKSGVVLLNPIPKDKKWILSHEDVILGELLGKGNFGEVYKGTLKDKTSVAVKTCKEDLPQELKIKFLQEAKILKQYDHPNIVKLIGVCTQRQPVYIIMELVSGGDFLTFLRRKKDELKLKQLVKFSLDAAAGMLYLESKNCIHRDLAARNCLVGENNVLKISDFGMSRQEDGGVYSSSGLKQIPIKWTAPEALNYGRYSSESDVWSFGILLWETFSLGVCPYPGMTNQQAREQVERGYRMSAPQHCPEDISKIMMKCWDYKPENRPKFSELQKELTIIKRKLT
TrkA(h), sequence (P04629 33-796): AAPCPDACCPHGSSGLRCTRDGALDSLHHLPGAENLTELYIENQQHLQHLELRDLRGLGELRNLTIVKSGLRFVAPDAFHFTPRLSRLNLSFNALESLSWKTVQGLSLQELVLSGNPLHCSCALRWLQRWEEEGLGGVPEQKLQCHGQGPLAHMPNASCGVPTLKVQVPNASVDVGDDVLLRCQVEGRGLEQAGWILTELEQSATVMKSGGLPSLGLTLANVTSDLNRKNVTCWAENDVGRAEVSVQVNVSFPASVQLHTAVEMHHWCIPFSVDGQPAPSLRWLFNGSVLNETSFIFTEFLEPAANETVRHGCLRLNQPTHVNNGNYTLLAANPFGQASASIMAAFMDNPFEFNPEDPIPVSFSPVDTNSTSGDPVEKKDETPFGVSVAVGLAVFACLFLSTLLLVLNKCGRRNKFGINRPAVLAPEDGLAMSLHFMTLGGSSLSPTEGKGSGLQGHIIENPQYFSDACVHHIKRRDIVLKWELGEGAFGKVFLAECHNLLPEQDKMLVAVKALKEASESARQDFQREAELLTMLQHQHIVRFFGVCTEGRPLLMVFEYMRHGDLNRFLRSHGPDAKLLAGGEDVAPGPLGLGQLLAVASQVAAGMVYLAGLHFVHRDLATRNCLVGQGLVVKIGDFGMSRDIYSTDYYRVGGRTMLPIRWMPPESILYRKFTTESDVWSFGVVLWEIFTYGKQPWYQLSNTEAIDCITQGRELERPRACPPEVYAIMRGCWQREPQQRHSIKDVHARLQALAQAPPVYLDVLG
PKBβ(h), sequence (P31751 whole entry): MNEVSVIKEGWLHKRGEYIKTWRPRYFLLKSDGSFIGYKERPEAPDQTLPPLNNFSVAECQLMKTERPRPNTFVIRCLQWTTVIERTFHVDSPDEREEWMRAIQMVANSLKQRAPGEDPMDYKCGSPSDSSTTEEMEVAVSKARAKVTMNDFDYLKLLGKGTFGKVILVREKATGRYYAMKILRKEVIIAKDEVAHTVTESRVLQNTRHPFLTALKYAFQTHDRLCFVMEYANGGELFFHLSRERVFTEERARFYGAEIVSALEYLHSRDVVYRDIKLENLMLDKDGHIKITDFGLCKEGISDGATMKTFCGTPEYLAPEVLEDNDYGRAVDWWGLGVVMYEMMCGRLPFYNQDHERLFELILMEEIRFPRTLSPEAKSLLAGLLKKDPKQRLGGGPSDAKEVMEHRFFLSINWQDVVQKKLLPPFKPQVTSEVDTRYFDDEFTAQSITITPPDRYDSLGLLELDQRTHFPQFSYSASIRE
Arg(h), sequence (P42684 whole entry): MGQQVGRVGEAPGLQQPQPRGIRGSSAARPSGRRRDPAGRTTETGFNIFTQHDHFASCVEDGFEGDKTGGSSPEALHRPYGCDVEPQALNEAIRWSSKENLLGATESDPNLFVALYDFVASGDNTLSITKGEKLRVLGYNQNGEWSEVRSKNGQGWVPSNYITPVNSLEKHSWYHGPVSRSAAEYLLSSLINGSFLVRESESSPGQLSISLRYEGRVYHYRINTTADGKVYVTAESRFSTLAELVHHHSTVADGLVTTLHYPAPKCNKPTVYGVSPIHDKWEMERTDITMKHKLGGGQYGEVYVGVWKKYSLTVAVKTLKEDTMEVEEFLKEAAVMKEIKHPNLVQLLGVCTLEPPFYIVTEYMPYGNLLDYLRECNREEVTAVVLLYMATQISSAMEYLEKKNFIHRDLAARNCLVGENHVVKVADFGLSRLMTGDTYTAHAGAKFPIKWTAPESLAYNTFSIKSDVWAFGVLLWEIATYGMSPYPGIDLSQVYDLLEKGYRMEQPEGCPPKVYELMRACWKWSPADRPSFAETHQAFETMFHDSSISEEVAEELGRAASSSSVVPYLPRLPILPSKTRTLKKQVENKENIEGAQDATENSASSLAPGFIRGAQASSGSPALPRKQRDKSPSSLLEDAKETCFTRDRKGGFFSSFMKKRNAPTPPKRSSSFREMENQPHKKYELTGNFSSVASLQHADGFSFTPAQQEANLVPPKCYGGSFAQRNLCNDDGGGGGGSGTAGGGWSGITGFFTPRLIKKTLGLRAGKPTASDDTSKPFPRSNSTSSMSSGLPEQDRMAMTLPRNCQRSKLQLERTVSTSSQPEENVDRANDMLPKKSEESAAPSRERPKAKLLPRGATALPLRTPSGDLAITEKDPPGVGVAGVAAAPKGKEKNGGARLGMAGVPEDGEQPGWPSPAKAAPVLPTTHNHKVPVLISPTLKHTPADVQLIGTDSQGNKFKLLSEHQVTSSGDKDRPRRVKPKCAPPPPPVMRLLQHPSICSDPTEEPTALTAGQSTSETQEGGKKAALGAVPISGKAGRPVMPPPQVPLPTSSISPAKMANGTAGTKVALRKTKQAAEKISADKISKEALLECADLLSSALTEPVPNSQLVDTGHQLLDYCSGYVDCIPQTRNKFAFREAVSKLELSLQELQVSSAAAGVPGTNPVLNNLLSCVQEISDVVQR

As to FAKLAARLYRKALARQLGVAA [MMI-0300], the “% activity” value with Arg(h) is 72%; in the experiment with MRCKβ(h) it was 83%; with TrkA(h), 25%; with EphB1(h), 44%; with CDK5/p35(h), 79%; in the experiment with FGFR1(h) it was 55%. In addition, the “% activity” value worked out at 134% in the experiment with cKit(V654A)(h); 84% with PKBβ(h); 82% with PKCβII(h); 130% with Fer(h); 52% with Axl(h).
In the case of YARAAARQARAKALNRQLGVA [MMI-0200], the “% activity” value in the experiment with Arg(h) stood at 82%; with EphB1(h) it was 95%; in the experiment with CDK5/p35(h), 92%; with FGFR1(h), 97%; in the experiment with PKBβ(h) it was 250%; in the experiment with PKCβII(h) it was 100%. The “% activity” value with Fer(h) is given as 101%; in the experiment with SRPK2(h), 100%; in the experiment with Axl(h), 99%; with Bmx(h) it was 76%.
Consider KAFAKLAARLYRKALARQLGVAA [MMI-0400], for which the “% activity” value stood at 84% in the experiment with Arg(h); 71% with MRCKβ(h); 17% with TrkA(h); 58% with EphB1(h); 76% with CDK5/p35(h); 59% with FGFR1(h). For the same sequence, the “% activity” value is given as 150% in the experiment with cKit(V654A)(h); 98% with PKBβ(h); 75% with PKCβII(h); 108% with Fer(h); 97% in the experiment with SRPK2(h); 41% with Axl(h). Moreover, in the experiment with Bmx(h), the “% activity” value is recorded as 26%.
For HRRIKAWLKKIKALARQLGVAA [MMI-0500], the “% activity” value with Arg(h) is reported as 22%; with MRCKβ(h), −10%; in the experiment with TrkA(h), 24%; with EphB1(h), 37%; with CDK5/p35(h) it was 59%; with FGFR1(h), 18%. Moreover, the “% activity” value came out at 223% with cKit(V654A)(h); 21% in the experiment with PKBβ(h); 3% in the experiment with PKCβII(h); 196% in the experiment with Fer(h); 80% with SRPK2(h); 12% in the experiment with Axl(h). The “% activity” value with Bmx(h) is 45%.
